Experimental findings from article PMC5852159, “Hydrogen peroxide positively regulates brassinosteroid signaling through oxidation of the BRASSINAZOLE-RESISTANT1 transcription factor” (Nature Communications, 2018) are described below.

This test addresses T1, MBP-BZR1 (maltose-binding protein-BRASSINAZOLE-RESISTANT1 fusion) (Arabidopsis thaliana, UniProt Q8S307 1-336).
T1 construct: BRASSINAZOLE-RESISTANT1 (BZR1), Arabidopsis thaliana; full length cDNA without stop codon, recombined into pMAL2CGW (N-MBP); In part of the pull-downs 1 mM H2O2 stood in the buffer, which oxidises BZR1 (mainly at Cys-63); also called recombinant BZR1; source: E. coli, purified (amylose resin); not shown: MBP, N-terminal, kept
T1 sequence (looked up): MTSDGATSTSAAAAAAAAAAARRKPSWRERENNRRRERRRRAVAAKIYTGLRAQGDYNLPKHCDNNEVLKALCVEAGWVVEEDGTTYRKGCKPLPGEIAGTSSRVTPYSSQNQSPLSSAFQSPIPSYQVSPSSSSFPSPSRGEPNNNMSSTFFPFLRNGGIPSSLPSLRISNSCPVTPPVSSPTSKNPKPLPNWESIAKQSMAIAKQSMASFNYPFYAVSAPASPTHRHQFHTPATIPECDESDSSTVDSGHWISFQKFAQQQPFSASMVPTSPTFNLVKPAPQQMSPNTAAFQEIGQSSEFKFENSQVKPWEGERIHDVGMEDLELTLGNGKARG
The test can be described thus: pull-down; glutathione beads with 1 µg GST fusion incubated with 1 µg MBP or MBP fusion; 20 mM Tris-HCl pH 7.5, 100 mM NaCl, 1 mM EDTA, with or without 1 mM H2O2, 4 °C, 1 h; washed with 300 mM NaCl, 0.1% Nonidet P-40; blots with anti-MBP and anti-GST. The conditions noted are these: both partners purified.

B1: GST-TRXh5 (enzyme, Arabidopsis thaliana, UniProt Q39241 1-118, looked up)
chain: MAGEGEVIACHTLEVWNEKVKDANESKKLIVIDFTASWCPPCRFIAPVFAEMAKKFTNVVFFKIDVDELQAVAQEFKVEAMPTFVFMKEGNIIDRVVGAAKDEINEKLMKHGGLVASA
notes: thioredoxin h5 (TRXh5), Arabidopsis thaliana; full length cDNA without stop codon, recombined into pDEST15 (N-GST); also called thioredoxin TRXh5; source: bacteria, purified (glutathione beads); not shown: GST, N-terminal, kept
For B1, the binding result is “binds”.
